Substrate in the series: CC(C)=CCC/C(C)=C/CC/C(C)=C/CC/C(C)=C/COP(=O)(O)OP(=O)(O)O
The series is described as follows: purified protein. In kind it is biochemical, Taxus chinensis. The settings on record: 1 mM MgCl2, 25 mM HEPES pH 8.5, 10% glycerol, 5 mM DTT, 32 °C, 30 min, GGPP spiked with [1-3H]-GGPP.

B1: TS1 (Taxus chinensis) (protein)
chain: MSSSTGTSKVVSETSSTIVDDIPRLSANYHGDLWHHNVIQTLETPFRESSTYQERADELVVKIKDMFNALGDGDISPSAYDTAWVARVATISSDGSEKPRFPQALNWVLNNQLQDGSWGIESHFSLCDRLLNTINSVIALSVWKTGHSQVEQGTEFIAENLRLLNEEDELSPDFEIIFPALLQKAKSLGINLPYDLPFIKYLSTTREARLTDVSAAADNIPANMLNALEGLEEVIDWKKIMRFQSKDGSFLSSPASTACVLMNTGDEKCFTFLNNLLDKFGGCVPCMYSIDLLERLSLVDNIEHLGIGRHFKQEIKVALDYVYRHWSERGIGWGRDSLVPDLNTTALGLRTLRTHGYDVSSDVLNNFKDENGRFFSSAGQTHVELRSVVNLFRASDLAFPDEGAMDDARKFAEPYLRDALATKISTNTKLFKEIEYVVEYPWHMSIPRLEARSYIDSYDDDYVWERKTLYRMPSLSNSKCLELAKLDFNIVQSLHQEELKLLTRWWKESGMADINFTRHRVAEVYFSSATFEPEYSATRIAFTKIGCLQVLFDDMADIFATLDELKSFTEGVKRWDTSLLHEIPECMQTCFKVWFKLMEEVNNDVVKVQGRDMLAHIRKPWELYFNCYVQEREWLDAGYIPTFEEYLKTYAISVGLGPCTLQPILLMGELVKDDVVEKVHYPSNMFELVSLSWRLTNDTKTYQAEKARGQQASGIACYMKDNPGATEEDAIKHICRVVDRALKEASFEYFKPSNDIPMGCKSFIFNLRLCVQIFYKFIDGYGIANEEIKDYIRKVYIDPIQV
notes: 60-residue N-terminal (plastid transit) truncation, His-tagged, pET28b, E. coli, purified
In the case of B1, the Km (in general, the concentration of substrate that gives half-maximal velocity) was determined as 5.5 ± 1.6 µM and the kcat (as a rule, the maximal rate divided by the concentration of active sites) is 1705 s⁻¹.

B2: TS2 (Taxus chinensis) (protein)
chain: SGSPTKLATENANAVAESNLIPRLSANYHGDLWHHGVIQTLQTPYQESSSYQERAEELIVKIKDMFKAVEEGAISPSAYDTAWVARVPDGSEKPRFPQALNWLLHNQLQDGSWGLESHFMLSDRLLSTLNSVISLLVWKTGQQQVEQGTLFITENLKLLEGEDELPPDFEIIFPALLQKAKALGMSLPDHDLPFIKSLSVAREARLASYTDNNIPASMLNALEGLEEVIDWDKIMRFQMPCLYSIDLLERLSLVDNIEHLGIGRHFKQEIKVALDYVYRYWSERGIGLGRDSLIPDLNTTALGLRTLRAHGYNVSSEVLNNFKDENGRFFSSLGQTHVELRSMVNLLRASDLAFPDEPLMDDAKIFAEAYLRDALATRISTNTKLFKEIDYAVEYPWHMSIPRLEARSYIDVYDDDYTWQNKTLYRMSNLSNAYCLELAKLDFNIVQSLHQEELKLLTRWWKESGMADINFTRHRVAEVYFSSATFEPEYSSTRIAFTKIGCLQVLFDDMADIFATLDELRDFTEGVKRWDTSLIHKLPDCMQTCFRVWFNLMEEVNNDVSNVQGRDMLNHIRKPWELYFNCYVQEREWLDAGYIPTLEEYLKTYSISVGLGPCTLQPILLMGDIVKDDVVEKVHYPSNLFELVSLSWRLTNDTKTYQAEKARGQQASGIACYMKDNPGSTEEDAIKYICGVVDRALKEACFEYFKPADDVPMSCKSFIFNLRLCVQIFYKFIDGYGIANEEIKDYIRKVYIEPIQV
notes: as for B1
As for B2, the Km came out at 8.6 ± 1.5 µM and the kcat worked out at 3280 s⁻¹.

Source of the values: article PMC8367818, “The Taxus genome provides insights into paclitaxel biosynthesis” (Nature Plants, 2021).
